Laboratory results: paper PMC7538418, “Structural basis for the transition from translation initiation to elongation by an 80S-eIF5B complex” (Nature Communications, 2020)

Biological target: T1, eIF5B (residues 396–1002) (S. cerevisiae, UniProt P39730 396-1002)
T1 construct: translation initiation factor eIF5B (GTPase), Saccharomyces cerevisiae, residues 396-1002; also called eIF5B:GTP; eIF5B-GDP; source: prepared and characterized as described [11]
T1 sequence (looked up): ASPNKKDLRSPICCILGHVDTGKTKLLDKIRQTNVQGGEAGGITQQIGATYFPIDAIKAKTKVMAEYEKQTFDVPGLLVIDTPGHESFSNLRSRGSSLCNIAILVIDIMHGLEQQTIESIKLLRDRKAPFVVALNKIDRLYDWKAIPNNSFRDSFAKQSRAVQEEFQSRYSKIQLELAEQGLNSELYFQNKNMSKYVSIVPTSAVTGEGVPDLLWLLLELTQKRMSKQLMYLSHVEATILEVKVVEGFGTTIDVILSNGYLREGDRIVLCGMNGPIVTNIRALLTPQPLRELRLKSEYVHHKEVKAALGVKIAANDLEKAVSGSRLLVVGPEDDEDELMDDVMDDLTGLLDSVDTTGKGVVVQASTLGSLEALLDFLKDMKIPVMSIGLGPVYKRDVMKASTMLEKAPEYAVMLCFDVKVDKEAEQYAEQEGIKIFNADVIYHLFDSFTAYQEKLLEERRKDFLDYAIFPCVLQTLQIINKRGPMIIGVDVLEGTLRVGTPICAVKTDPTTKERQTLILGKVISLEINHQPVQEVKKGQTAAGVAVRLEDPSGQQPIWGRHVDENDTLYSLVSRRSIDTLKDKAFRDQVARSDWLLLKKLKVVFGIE
Assay: cryo-EM structure; 48S PICs mixed with eIF5B:GTP and 60S, frozen ~40 s after mixing; 30 mM HEPES-KOH pH 7.5, 100 mM KOAc, 10 mM Mg(OAc)2, 1 mM GTP:Mg2+; grids at 21 °C; uL16 within the 60S subunit
Conditions: both partners purified

B1: ribosomal protein uL16 (natural protein, S. cerevisiae)
chain: RRPARCYRYQKNKPYPKSRYNRAVPDSKIRIYDLGKKKATVDEFPLCVHLVSNELEQLSSEALEAARICANKYMTTVSGRDAFHLRVRVHPFHVLRINKMLSCAGADRLQQGMRGAWGKPHGLAARVDIGQIIFSVRTKDSNKDVVVEGLRRARYKFPGQQKIILSKKWGFTNLDRPEYLKKREAGEVKDDGAFVKFLSKKGSLENNIREFPEYFA
notes: ribosomal protein uL16, component of the 60S large ribosomal subunit, Saccharomyces cerevisiae; Stood in the assay as a subunit of the whole 60S/80S ribosome, not as an isolated protein; source: in yeast Saccharomyces cerevisiae 60S ribosomal subunits, prepared as described [11]
B1: binds.
